{"source": "paper PMC4790635", "about": "“A critical role of mevalonate for peptidoglycan synthesis in Staphylococcus aureus” (Scientific Reports, 2016)", "proteins": {"B1": {"name": "S. aureus MvaA protein (HMG-CoA reductase), His-tag fused recombinant wild-type (enzyme, Staphylococcus aureus (strain RN4220), UniProt Q9FD86 1-425, looked up)", "chain": "MQSLDKNFRHLSRQQKLQQLVDKQWLSEDQFDILLNHPLIDEEVANSLIENVIAQGALPVGLLPNIIVDDKAYVVPMMVEEPSVVAAASYGAKLVNQTGGFKTVSSERIMIGQIVFDGVDDTEKLSADIKALEKQIHKIADEAYPSIKARGGGYQRIAIDTFPEQQLLSLKVFVDTKDAMGANMLNTILEAITAFLKNESPQSDILMSILSNHATASVVKVQGEIDVKDLARGERTGEEVAKRMERASVLAQVDIHRAATHNKGVMNGIHAVVLATGNDTRGAEASAHAYASRDGQYRGIATWRYDQKRQRLIGTIEVPMTLAIVGGGTKVLPIAKASLELLNVDSAQELGHVVAAVGLAQNFAACRALVSEGIQQGHMSLQYKSLAIVVGAKGDEIAQVAEALKQEPRANTQVAERILQEIRQQ", "notes": "MvaA protein (HMG-CoA reductase) of Staphylococcus aureus RN4220; mvaA gene amplified by PCR from chromosomal DNA with primers FmvaA-His and RmvaA-His and ligated into pET28a in-frame with the N-terminal histidine tag; also called SaMvaA; WT MvaA; source: E. coli BL21(DE3)pLysS, purified (nickel-chelating resin, dialysis)"}}, "target": "the molecule itself", "experiment": "SEC; gel filtration analysis of S. aureus MvaA protein; conditions not told in the text (Supplementary Fig. 9)"}
{"protein": "B1", "values": [{"measurement": "stoichiometry N", "result": 2}]}
